US20250320288A1 (ELIXIRON IMMUNOTHERAPEUTICS HONG KONG, published 2025)

Biological target: recombinant human IFN-γ (human)
Test: cell-based or functional assay

Sequence of recombinant human IFN-γ (human) (P01579 24-161): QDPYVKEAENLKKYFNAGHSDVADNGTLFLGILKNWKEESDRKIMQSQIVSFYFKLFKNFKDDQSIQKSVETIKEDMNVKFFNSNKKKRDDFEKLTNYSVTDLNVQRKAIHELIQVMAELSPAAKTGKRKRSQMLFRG

EC50 restoring melanogenesis (melanin content, absorbance at 470 nm) of human primary melanocytes cultured with 20 ng/mL IFN-γ for 7 days: 0.129 µg/mL
B1: EI-001 (2A6Q), human monoclonal anti-IFN-γ antibody (antibody, human IgG1, lambda, V domains shown)
VH: EVQLVESGGGLVKPGDSLTVSCVASGFTFSNYFIHWVRQAPGKGLEWVATISGRTKYMFYSDSLRGRFTVSRDNAQNSVYLHMSSLRGEDTALYYCVRGYDHSDSNSAADLLHWGRGTLVTVSS
VL: NFMLTQPLSVSGYPGKTIVISCVRSSGSVASHYVQWFQQRPGSAPAMVIYEDSHRPSGIPDRFSGSVDASSNSASLTISGLKTEDEADYFCQSYYGNNQVLFGGGTKLTVLG
EC50 of EI-001 restoring viability of human primary melanocytes cultured with 30 ng/mL IFN-γ (CellTiter-Glo, 72 hrs): 0.00521 µg/mL
